# Assay results reported in the supplement of paper PMC12764529.
# ± gives the half width of the 95% confidence interval.
# Columns and labels:
# [1] = folding stability dG unfold from chymotrypsin proteolysis; higher = more stable
# Procedure, shortened: (§1)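 Unfolding free energy was derived, per protease or combined, by relating Bayesian-fitted K50 values from sequencing counts to a sequence-predicted unfolded-state K50 and a shared folded-state K50. The underlying digests exposed cysteine-free mini-proteins under 80 residues, in a PA-tagged cDNA display construct, to trypsin and chymotrypsin at 11 threefold-diluted concentrations and to a no-protease condition. A filter kept only designs with AlphaFold2 dimer inter-PAE above 15.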
# [2] = folding stability dG unfold from trypsin proteolysis; higher = more stable
# Procedure, shortened: as §1
# [3] = folding stability dG unfold (combined trypsin and chymotrypsin); higher = more stable
# Procedure, shortened: as §1
Sequence,folding stability dG unfold [1],folding stability dG unfold [2],folding stability dG unfold [3]
SAGGPEVVLTVTVKVPPEMTPEEVAQRLADELRKKYPDLKVEVVSVEYDEETKEVTVTIRVTYAPPPSAGGS [r8_26_TrROS_Hall],4.05 ± 0.16 kcal/mol,4.97 ± 0.64 kcal/mol,4.45 ± 0.14 kcal/mol
SAGGSAGGSAGGSTITISPEQPVEGLTIELDGKTIKVVSYTPEPKEGEPLLKVTVERLDSAGGSAGGSAGGS [r10_1098_JUSTAS],-0.489 ± 0.33 kcal/mol,-1.28 ± 0.86 kcal/mol,-0.771 ± 0.81 kcal/mol
SAGGSAGGSAERTLTITVPAAPGDIPALVAPDGSVYGIGDFEVIPGEGRVELKVTLVKPGDASAGGSAGGSA [r18_116_TrMRF],0.212 ± 0.032 kcal/mol,-0.879 ± 0.1 kcal/mol,-0.0227 ± 0.051 kcal/mol
SAGSMVEERVRELLRELDPERPWEIERLPDGTIVARDPETGRWYIFKVEPDGTVTLERVLSLEEYERLSSAG [r5_852_JUSTAS],4.78 ± 0.076 kcal/mol,3.37 ± 0.075 kcal/mol,4.42 ± 0.11 kcal/mol
SAGKPGEPIKLKIRYVDPDNGEPQTFEFPIKRIEDVEIDPPGNIIITFPGDGQEITFPPNHLTEVEILSAGG [r19_416_TrROS],0.36 ± 0.24 kcal/mol,-0.852 ± 0.73 kcal/mol,0.0637 ± 0.18 kcal/mol
SAGGSAGGSASPRTYKYKFTIKYPDGSTSEYEIVDEEDKAKEKIKKEYGAEEIELEIEPEESAGGSAGGSAG [r3_220_JUSTAS],1.39 ± 0.19 kcal/mol,-0.218 ± 0.41 kcal/mol,0.637 ± 0.28 kcal/mol
SAGGSAGGSAGFEAFVEEIKKDGDYKVEAFVFDNESGIKTLVIVLESPEEDKYEIRTFNISAGGSAGGSAGG [r11_753_TrMRF],0.796 ± 0.24 kcal/mol,0.769 ± 0.038 kcal/mol,0.829 ± 0.14 kcal/mol
SAGGSAGGSAMKIEIEKTEDTIKVRIKRKDGKEIEIEIPKENMSLEEIKKLAEELGIEKVEPSAGGSAGGSA [r18_83_TrROS_Hall],1.63 ± 0.073 kcal/mol,1.49 ± 0.17 kcal/mol,1.6 ± 0.17 kcal/mol
SAGGSAGGPKTKTVDFIVPALDENGNPLPDNAKFTFKLPDKTINIDFKRDKDSDYVLVKATITNSAGGSAGG [r6_657_TrMRF],0.901 ± 0.14 kcal/mol,0.197 ± 0.11 kcal/mol,0.625 ± 0.098 kcal/mol
SAGGSMTTTTEDKGDGRIVTTTIPEEGTVVTTTIFYEPGGPKVETKTTTTPVPPLPSTVVTSPNLASAGGSA [r2_375_JUSTAS],1.15 ± 0.13 kcal/mol,0.572 ± 0.093 kcal/mol,0.937 ± 0.34 kcal/mol
SAGGSAGGSPPVKYRITIEMKDPNGKEHTHTIEIPGMNPDDAKEFLEDIPIPPGIKDVEIEPYSAGGSAGGS [r12_886_TrROS],-0.55 ± 0.68 kcal/mol,-0.0813 ± 0.068 kcal/mol,-0.148 ± 0.24 kcal/mol
SAGGSAEIVIVESPQQVREAAEPENPDGPPVKVIPMTYEEAKNEIRELKKKGKPMKIVIVIDPGTPSAGGSA [r15_567_TrROS],-0.167 ± 0.24 kcal/mol,-0.547 ± 0.41 kcal/mol,-0.429 ± 0.65 kcal/mol
SAGGSAGGSAGDTLILVRNEDGRLYLIRVRAYRVPGEDGSLVFEVEIVEFPSLEEALAALSAGGSAGGSAGG [r11_967_TrROS_Hall],4.825 ± 0.039 kcal/mol,4.05 ± 0.065 kcal/mol,4.66 ± 0.051 kcal/mol
SAGMTTTLTKTEKFPDGTTVTYTTVTAPDGTPLTATATYDPNNPNKATTTTTDPATGTTTTTTTTITGGSAG [r5_345_JUSTAS],0.674 ± 0.11 kcal/mol,1.03 ± 0.065 kcal/mol,0.852 ± 0.12 kcal/mol
SAGGSAGGSADPSVKPPVIKRLVIDIPLEELEKLFPGKLEKAVELAEEAVKLGFDEVVILGGSAGGSAGGSA [r18_441_TrMRF],1.12 ± 0.023 kcal/mol,0.116 ± 0.031 kcal/mol,0.793 ± 0.049 kcal/mol
SAGEIEEILIENPETNEVYRITKVETTVELDEDGNLHTTTKVEIEKVEPPPPPEPEVEVEVKPGEKVELSAG [r5_212_TrROS_Hall],-0.00362 ± 0.42 kcal/mol,0.225 ± 0.068 kcal/mol,< -1 kcal/mol
SAGGSAGGSAGGNPLKGNFFRLKLELTLKVEVKIPKKGEKKTFPIKIELELDVPPDSILSAGGSAGGSAGGS [r10_133_TrMRF],3.98 ± 0.12 kcal/mol,3.39 ± 0.26 kcal/mol,3.69 ± 0.11 kcal/mol
SAGGSAGGSAGGKIKVPPGAIILVETESGEWKEIKPGDEIELKNSKVYIFNENGEKIELPSAGGSAGGSAGG [r7_54_TrROS_Hall],1.28 ± 0.092 kcal/mol,0.82 ± 0.11 kcal/mol,1.28 ± 0.18 kcal/mol
SAGGSAGGSAGGNKVTIPIHIPPGDPGNPEKAIEWAEHIAKELQEKNGGKDVDINIMPSPSAGGSAGGSAGG [r7_440_TrROS],-0.595 ± 0.079 kcal/mol,0.772 ± 0.1 kcal/mol,0.174 ± 0.33 kcal/mol
SAGGSAKVKIIVTYNDGKKEEIIFDIPENYEISEVEKIAKKIAKNIAKKKNLPNVNIKVEKIEPLESAGGSA [r15_463_TrMRF],3.39 ± 0.06 kcal/mol,2.41 ± 0.047 kcal/mol,3.09 ± 0.074 kcal/mol
SAGGSAGGSAKTVTLTIEITNEDGKKFTAKIEVTYDEETGEFTVRIEIFDKNGKLIAEFPLSAGGSAGGSAG [r3_154_TrROS_Hall],5.1 ± 0.1 kcal/mol,3.72 ± 0.17 kcal/mol,4.98 ± 0.2 kcal/mol
